The values that follow come from the supplement of paper PMC10567573.

First the molecules themselves.
B1: NP_116010.1 (parent)
chain: HSLRAVSTDPPHHDHHDEFCLMP

The variants in data set [1] derive from B1. The data set can be described thus: protein stability index of a GFP-peptide fusion (GPS, HEK-293T) (PSI 1-6); higher = more stable. The conditions noted are these: c terminus: native.
The variants in data set [2] derive from B1. Described as above. To be noted: c terminus: native. The source holds these as a separate data set.

As to HSWRAVSTDPPHHDHHDEFCLMP [L3W], the protein stability index stood at 2.23 in data set [1] and 2.47 in data set [2].
For the variant HSERAVSTDPPHHDHHDEFCLMP [L3E], the protein stability index was determined as 2.28 in data set [1] and 2.11 in data set [2].
The matching figures for HSHRAVSTDPPHHDHHDEFCLMP [L3H]: 2.57 and 2.9.
The like results for HHLRAVSTDPPHHDHHDEFCLMP [S2H] were, in that order, 2.69 and 1.95.
HRLRAVSTDPPHHDHHDEFCLMP [S2R]: the protein stability index in data set [1] came out at 2.73; in data set [2], 1.58.
The like results for HELRAVSTDPPHHDHHDEFCLMP [S2E] were, in that order, 2.65 and 2.29.
The matching figures for HLLRAVSTDPPHHDHHDEFCLMP [S2L]: 2.53 and 2.93.
The like results for HTLRAVSTDPPHHDHHDEFCLMP [S2T] were, in that order, 2.04 and 2.11.
Regarding HFLRAVSTDPPHHDHHDEFCLMP [S2F], the protein stability index in data set [1] turned out to be 2.24; in data set [2], 3.2.
The like results for HALRAVSTDPPHHDHHDEFCLMP [S2A] were, in that order, 2.31 and 3.34.
The like results for HKLRAVSTDPPHHDHHDEFCLMP [S2K] were, in that order, 2.58 and 1.89.
For the variant HWLRAVSTDPPHHDHHDEFCLMP [S2W], the protein stability index in data set [1] stood at 1.9; in data set [2], 1.23.
As for HDLRAVSTDPPHHDHHDEFCLMP [S2D], the protein stability index in data set [1] came out at 3.12; in data set [2] it was 2.45.
As to HMLRAVSTDPPHHDHHDEFCLMP [S2M], the protein stability index in data set [1] stood at 2.41; in data set [2] it was 2.38.
The like results for HILRAVSTDPPHHDHHDEFCLMP [S2I] were, in that order, 2.49 and 2.83.
In the case of HNLRAVSTDPPHHDHHDEFCLMP [S2N], the protein stability index in data set [1] turned out to be 3.12; in data set [2], 2.72.
The like results for HQLRAVSTDPPHHDHHDEFCLMP [S2Q] were, in that order, 2.6 and 2.68.
Regarding HCLRAVSTDPPHHDHHDEFCLMP [S2C], the protein stability index came out at 2.64 in data set [1] and 2.73 in data set [2].
With HVLRAVSTDPPHHDHHDEFCLMP [S2V], the protein stability index in data set [1] was 2.21; in data set [2] it was 2.88.
The matching figures for HYLRAVSTDPPHHDHHDEFCLMP [S2Y]: 2.5 and 3.18.
As to HSLRADSTDPPHHDHHDEFCLMP [V6D], the results for the protein stability index in data set [1] and in data set [2] were 2.64 and 2.57, respectively.
Turning to HSLRALSTDPPHHDHHDEFCLMP [V6L], the protein stability index in data set [1] worked out at 2.35; in data set [2], 3.23.
For the variant HSLRAGSTDPPHHDHHDEFCLMP [V6G], the values for the protein stability index in data set [1] and in data set [2] were 2.9 and 2.49, respectively.
The like results for HSLRAYSTDPPHHDHHDEFCLMP [V6Y] were, in that order, 2.41 and 3.34.
Consider HSLRARSTDPPHHDHHDEFCLMP [V6R], for which the protein stability index was determined as 2.19 in data set [1] and 2.37 in data set [2].
The like results for HSLRASSTDPPHHDHHDEFCLMP [V6S] were, in that order, 2.62 and 3.49.
Turning to HSLRAKSTDPPHHDHHDEFCLMP [V6K], the protein stability index in data set [1] worked out at 2.72; in data set [2] it was 2.02.
The matching figures for HSLRAMSTDPPHHDHHDEFCLMP [V6M]: 2.51 and 2.68.
The like results for HSLRAASTDPPHHDHHDEFCLMP [V6A] were, in that order, 3 and 2.57.
As to HSLRACSTDPPHHDHHDEFCLMP [V6C], the protein stability index in data set [1] came out at 2.52; in data set [2], 2.93.
With HSLRAFSTDPPHHDHHDEFCLMP [V6F], the protein stability index in data set [1] worked out at 1.92; in data set [2], 2.8.
As to HSLRAISTDPPHHDHHDEFCLMP [V6I], the protein stability index in data set [1] is 2.27; in data set [2] it was 2.17.
As for HSLRANSTDPPHHDHHDEFCLMP [V6N], the values for the protein stability index in data set [1] and in data set [2] were 2.98 and 2.76, respectively.
Turning to HSLRGVSTDPPHHDHHDEFCLMP [A5G], the results for the protein stability index in data set [1] and in data set [2] were 3.03 and 2.44, respectively.
Consider HSLRQVSTDPPHHDHHDEFCLMP [A5Q], for which the results for the protein stability index in data set [1] and in data set [2] were 2.5 and 2, respectively.
The like results for HSLRFVSTDPPHHDHHDEFCLMP [A5F] were, in that order, 2.79 and 3.93.
Consider HSLRIVSTDPPHHDHHDEFCLMP [A5I], for which the figures for the protein stability index in data set [1] and in data set [2] were 2.56 and 2.96, respectively.
For the variant HSLRNVSTDPPHHDHHDEFCLMP [A5N], the protein stability index turned out to be 2.54 in data set [1] and 2.18 in data set [2].
The matching figures for HSLRSVSTDPPHHDHHDEFCLMP [A5S]: 2.87 and 2.34.
As to HSLRKVSTDPPHHDHHDEFCLMP [A5K], the protein stability index in data set [1] amounted to 2.94; in data set [2], 2.07.
For the variant HSLRVVSTDPPHHDHHDEFCLMP [A5V], the protein stability index in data set [1] amounted to 2.37; in data set [2] it was 3.93.
With HSLRMVSTDPPHHDHHDEFCLMP [A5M], the figures for the protein stability index in data set [1] and in data set [2] were 1.9 and 2.19, respectively.
Consider HSLREVSTDPPHHDHHDEFCLMP [A5E], for which the figures for the protein stability index in data set [1] and in data set [2] were 2.51 and 2.01, respectively.
The matching figures for HSLRWVSTDPPHHDHHDEFCLMP [A5W]: 2.96 and 4.16.
The matching figures for HSLRCVSTDPPHHDHHDEFCLMP [A5C]: 2.6 and 2.2.
As for HSLRTVSTDPPHHDHHDEFCLMP [A5T], the protein stability index in data set [1] is 2.38; in data set [2], 2.67.
The matching figures for HSLRLVSTDPPHHDHHDEFCLMP [A5L]: 2.4 and 3.4.
For HSLRDVSTDPPHHDHHDEFCLMP [A5D], the protein stability index in data set [1] turned out to be 3.02; in data set [2] it was 1.7.
The matching figures for HSLRHVSTDPPHHDHHDEFCLMP [A5H]: 2.54 and 1.69.
